According to publication doi:10.1101/2022.01.14.476343:

Target: Tpp49Aa1 pesticidal protein from Lysinibacillus sphaericus (Lysinibacillus sphaericus)
Experiment: crystal structure

“Tpp49Aa1 pesticidal protein from Lysinibacillus sphaericus (natural protein)” was tested. Which stoichiometry N did it give?
Its stoichiometry N is 2.
